Assay results from US20240082302A1 (University of Pennsylvania, published 2024).

T1: human TIM-3 expressed on cells (NB4-TIM3 cells; human AML leukemic stem cells) (human, UniProt Q8TDQ0 22-301)
T1 construct: whole, on cells; also called NB4-expressing human TIM-3
T1 sequence (looked up): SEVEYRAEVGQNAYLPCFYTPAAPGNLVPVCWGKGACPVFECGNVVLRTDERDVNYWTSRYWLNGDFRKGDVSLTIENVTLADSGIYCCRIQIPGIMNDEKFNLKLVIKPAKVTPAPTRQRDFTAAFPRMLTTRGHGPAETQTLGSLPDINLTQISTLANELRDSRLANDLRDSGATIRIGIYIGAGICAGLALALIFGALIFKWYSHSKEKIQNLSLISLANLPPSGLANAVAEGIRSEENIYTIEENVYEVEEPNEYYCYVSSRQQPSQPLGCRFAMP

B1: Anti-TIM3 VHH30 (VHH)
VHH: QVQLQESGGGLVQAGGSLRLSCAASGFTFGSYVMGWFRQAPGKEREFVASISTSGGITSYADSVKGRFTVSRDNAKNTVYLQMNSLKPEDTAVYYCARDLTYYRTGGRLPDNANGYAYWGQGTQVTVSS
notes: Llama VHH tested as a phage clone (pCOMB3X phage display) by flow cytometry on cells
B2: Anti-TIM3 VHH32 (VHH)
VHH: QVQLQESGGGLVQAGGSLNLSCAASGSSFRLYTVGWHRQAPGKQRELVAWISGAGSTNYHSSVKGRFTISRDNAKNTALLQMNNLAPEDTAVYYCNLLNYWGQGTQVTVSS
notes: as for B1
B3: Anti-TIM3 VHH33 (VHH)
VHH: QVQLQESGGGLVQPGGSLRLSCAVSGLTPDAYVMGWFRQAPGKEREGVSCISPSGGTTSYPDSVKGRFTISRDNAKNTVYLQMNSLKPEDTGVYYCAAVAGRWCDYGMNYYGKGTQVTVSS
notes: as for B1
B4: Anti-TIM3 VHH38 (VHH)
VHH: QVQLQESGGGLVQAGDSLRLSCAVGRTFSASTLGWFRQSPGKEREFVAAISWWRGEAYYGDSVKGRFTISRDNTKTTINLQMNSLKPEDTAVYYCARAQFDGATRADDYDNWGQGTQVTVSS
notes: Llama VHH isolated as a phage display clone (pCOMB3X)
B5: Anti-TIM3 VHH12 (VHH)
VHH: QVQLQESGGGLVQTGDSLRLSCVVSGGTFRNYVMGWFRQAPGKEREFVSAMNWSGGITVYADSVKGRFTISRDNAKNAVYLQMGSLKPGDTAVYYCAAAAIDGGTVRSINSYAYWGQGTQVTVSS
notes: as for B4
B6: Anti-TIM3 VHH13 (VHH)
VHH: QVQLQESGGGLVQAGGSLSLSCAASGRTFKNYLMAWFRQTPGKEREFVAAITQLGTRSLNEDFVKGRFTISRDNAKNTVYLQMNDLKTDDTGVYSCAASLQSGGSLRYAKYDYWGQGTQVTVSS
notes: as for B4

Each binder was assayed against T1, human TIM-3 expressed on cells … (assay: flow cytometry, VHH phage clones on NB4 cells expressing human TIM-3).

Q: Does B1 bind?
A: Result: binds

Q: Does B2 bind?
A: Result: binds

Q: Does B3 bind?
A: Result: binds

These binders were tested against T1, human TIM-3 expressed on cells … (assay: phage display panning/screening on TIM-3 expressing NB4 cells).
Excerpt: To generate VHHs targeting human TIM-3, human recombinant extracellular TIM-3 purified from HEK293 cells was used to immunize llamas, and the resulting VHH phage display libraries were constructed. The phage VHH clones targeting TIM-3 were screened by panning through TIM-3 expressing NB4 cells. The positive clones specifically binding to TIM-3 expressing NB4 cells were isolated. DNA encoding each of the VHHs, including VHH30, 32, and 33, were sequenced. The sequences were consistent with the predicted sequences for VHHs. Each of the VHHs, with both nucleotide and amino acid sequences, are listed below.

Q: Does B4 bind?
A: Result: binds

Q: Does B5 bind?
A: Result: binds

Q: Does B6 bind?
A: Result: binds
